# Positions count from the first letter of the chain named.
# B1: monoclonal antibody secreted by Clone No. 88 (antibody, V domains shown)
# VH: DVQVQESGPGLVKPSQSLSLTCTVTGNSITSYYAWNWIRQFPGNKLEWMGYITYSGTTSYNPSLKSRISITRDTSKNQFFLQLNSVTTEDTATYYCAREEYDDIYAVDYWGQGTSVTVSS
# VL: IIVMTQTPLSLPVSLGDQASISCRSSQSLVHSNGNTYLHWYLQKPGQSPKLLIYKVYNRFSGVPDRFSGSGSGTDFTLKISRVEAEDLGVYFCSQSTHFPTFGGGTKLEIK
# notes: Murine hybridoma antibody tested as culture supernatant; also called murine anti-human IL-17A monoclonal antibody
# B2: anti-human IL-17A humanized monoclonal antibody AS15799 (antibody, human IgG1, kappa, V domains shown)
# VH: QVQVQESGPGLVKPSETLSLTCTVSGNSITSYYAWNWIRQPPGKGLEWMGYITYSGTTSYNPSLKSRVTISRDTSKNQFSLKLSSVTAADTAVYYCAREEYDDIYAVDYWGQGTLVTVSS
# VL: IIVMTQSPLSLPVTLGQPASISCRSSQSLVHSNGNTYLHWYQQRPGQSPRRLIYKVYNRFSGVPDRFSGSGSGTDFTLKISRVEAEDVGVYYCSQSTHFPTFGQGTRLEIKR
# B3: anti-human IL-17A humanized monoclonal antibody AS15805 (antibody, human IgG1, kappa, V domains shown)
# VH: B2 VH with V68I
# VL: B2 VL with I1D
# B4: anti-human IL-17A humanized monoclonal antibody AS15810 (antibody, human IgG1, kappa, V domains shown)
# VH: B2 VH with R72V
# VL: B2 VL with I1D, I2V, R51L
# B5: anti-human IL-17A humanized monoclonal antibody AS15802 (antibody, human IgG1, kappa, V domains shown)
# VH: B2 VH with V4L
# VL: B2 VL with R51L, Y92F
# B6: anti-human IL-17A humanized monoclonal antibody AS15820 (antibody, human IgG1, kappa, V domains shown)
# VH: B2 VH with V4L, R72V
# VL: B2 VL with I1D, R51L, Y92F
# B7: anti-human IL-17A humanized monoclonal antibody AS15815 (antibody, human IgG1, kappa, V domains shown)
# VH: B2 VH with V68I
# VL: B2 VL with I1D, I2V, Y41F, R51L
# B8: anti-human IL-17A humanized monoclonal antibody AS15803 (antibody, human IgG1, kappa, V domains shown)
# VH: B2 VH with V68I, R72V
# VL: B2 VL with R51L, Y92F
# Target: T1, recombinant human IL-17A (human, UniProt Q16552 24-155)
# T1 construct: also called IL-17A antigen
# Assay: ELISA, recombinant human IL-17A coated at 1 µg/mL, HRP anti-mouse IgG, OD450nm
# Procedure: The plate was washed five times with PBST. […] The plate was washed five times with PBST. […] The plate was washed five times with PBST. 100 μL/well of colorimetric substrate TMB was added and incubated at room temperature for 10 minutes. Color development was terminated by adding 100 μL/well of 1 M H₂SO₄. The absorbance at 450 nm was read on a microplate reader.
# T1 sequence (Q16552 24-155 limits assumed): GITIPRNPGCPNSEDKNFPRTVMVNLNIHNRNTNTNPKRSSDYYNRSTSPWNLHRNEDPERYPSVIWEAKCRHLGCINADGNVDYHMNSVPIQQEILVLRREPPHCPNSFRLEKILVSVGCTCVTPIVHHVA
row,EC50,Binder
1,0.165 nM,B1

# Target: T1, recombinant human IL-17A
# Assay: ELISA, recombinant human IL-17A coated at 1 µg/mL, HRP anti-human IgG, OD450nm
# Procedure: The antigen binding activity of humanized anti-human IL-17A monoclonal antibody was determined by ELISA. Recombinant human IL-17A (purchased from Sino Biological Inc.) was coated on a 96-well high-absorbing ELISA plate with a carbonate buffer solution with pH 9.6, the coating concentration was 1 μg/mL, the coating amount was 100 μL per well, and the coating was carried at 4° C. out overnight. The plate was washed five times with PBST and blocked with 300 μL/well of PBST containing 1% BSA and incubated at 25° C. for 1 hour. The plate was washed five times with PBST. […] The plate was washed five times with PBST. Then, horseradish peroxidase-labeled anti-human IgG antibody (Chemicon, Catalog Number AP309P) 1:2000 diluted in PBST containing 1% BSA was added, 100 μL was added to each well, incubated at 25° C. for 1 hour. The plate was washed five times with PBST. 100 μL/well of colorimetric substrate TMB was added and incubated at room temperature for 10 minutes. Color development was terminated by adding 100 μL/well of 1 M H2SO₄. The absorbance at 450 nm was read on a microplate reader.
row,EC50,Binder
1,0.091 nM,B2
2,0.082 nM,B3
3,0.083 nM,B4
4,0.088 nM,B5
5,0.089 nM,B6
6,0.077 nM,B7
7,0.087 nM,B8
